Reference: patent US7375083B2, “Pharmaceutical compositions for prevention of overdose or abuse” (Shire LLC, priority 2003, dated 2008)
Where a SMILES comes first, the peptide text is derived from it. The star is where a group is joined. X1 = COc1ccc2c3c1O[C@H]1C(O*)=CC[C@H]4[C@@H](C2)N(C)CC[C@]314

Assay: Intranasal bioavailability of hydrocodone conjugates in rats, LC/MS/MS
Settings: intranasal, 1 mg/kg

CC[C@H](C)[C@H](NC(=O)[C@H](Cc1ccccc1)NC(=O)[C@H](Cc1ccccc1)NC(=O)[C@H](Cc1ccc(O)cc1)NC(=O)[C@@H](N)Cc1ccc(O)cc1)C(=O)OC1=CC[C@H]2[C@H]3Cc4ccc(OC)c5c4[C@@]2(CCN3C)[C@H]1O5 [YYFFI[SEQ ID NO: 8]-HC, Tyr-Tyr-Phe-Phe-Ile[SEQ ID NO: 8]-(6-O)-Hydrocodone] (H-YYFFI-X1)
Mean HC (hydrocodone) concentration (0 min): 0 ng/mL | Mean HC + HM concentration (0 min): 0 ng/mL | Mean HM (hydromorphone) concentration (0 min): 0 ng/mL | Mean HC (hydrocodone) concentration (5 min): 28 ng/mL | Mean HC + HM concentration (5 min): 28 ng/mL | Mean HM (hydromorphone) concentration (5 min): bql^3 | Mean HC (hydrocodone) concentration (15 min): 27 ng/mL | Mean HC + HM concentration (15 min): 27 ng/mL | Mean HM (hydromorphone) concentration (15 min): bql^4 | Mean HC (hydrocodone) concentration (30 min): 16 ng/mL | Mean HC + HM concentration (30 min): 16 ng/mL | Mean HM (hydromorphone) concentration (30 min): bql^5 | Mean HC (hydrocodone) concentration (60 min): 21 ng/mL | Mean HC + HM concentration (60 min): 21 ng/mL | Mean HM (hydromorphone) concentration (60 min): bql^6
